Data: patent publication US20150072933A1, “NOVEL SEQUENCES FOR THE CONTROL OF REPRODUCTION IN FISH” (Yissum Research Development Company of the Hebrew …, priority 2011, published 2015)
Entries after “also recorded” stand apart in the source; their conditions may differ. *1 amine or outer side, *2 acyl side, *3 side chain or, on linkers, in order; H or OH if unused. Where a SMILES comes first, the peptide text is derived from it. Where no end group is shown, it is not given here. [ ]: non-standard residue; d: D form. Suc = O=C(CCC(=O)[*:2])[*:1]; NMeV = CN[C@H](C(=O)O)C(C)C

T1: human NK3R (human NKB receptor) (human, UniProt P29371 1-465)
T1 sequence (looked up): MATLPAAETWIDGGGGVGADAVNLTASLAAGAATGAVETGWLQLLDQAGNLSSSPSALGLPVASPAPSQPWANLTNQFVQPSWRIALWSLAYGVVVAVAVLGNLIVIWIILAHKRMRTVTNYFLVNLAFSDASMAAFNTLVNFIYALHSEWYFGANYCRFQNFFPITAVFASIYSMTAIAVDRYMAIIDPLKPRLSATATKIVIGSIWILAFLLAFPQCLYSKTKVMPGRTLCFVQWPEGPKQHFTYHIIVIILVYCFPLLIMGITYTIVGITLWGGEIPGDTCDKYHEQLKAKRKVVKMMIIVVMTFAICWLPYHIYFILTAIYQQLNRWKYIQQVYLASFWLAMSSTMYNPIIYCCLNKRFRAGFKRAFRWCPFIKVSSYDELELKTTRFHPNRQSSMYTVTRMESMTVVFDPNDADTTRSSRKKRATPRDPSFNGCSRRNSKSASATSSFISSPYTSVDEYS

T2: zebrafish Tac3ra (tac3 receptor a, NKB receptor) (zebrafish)
T2 chain: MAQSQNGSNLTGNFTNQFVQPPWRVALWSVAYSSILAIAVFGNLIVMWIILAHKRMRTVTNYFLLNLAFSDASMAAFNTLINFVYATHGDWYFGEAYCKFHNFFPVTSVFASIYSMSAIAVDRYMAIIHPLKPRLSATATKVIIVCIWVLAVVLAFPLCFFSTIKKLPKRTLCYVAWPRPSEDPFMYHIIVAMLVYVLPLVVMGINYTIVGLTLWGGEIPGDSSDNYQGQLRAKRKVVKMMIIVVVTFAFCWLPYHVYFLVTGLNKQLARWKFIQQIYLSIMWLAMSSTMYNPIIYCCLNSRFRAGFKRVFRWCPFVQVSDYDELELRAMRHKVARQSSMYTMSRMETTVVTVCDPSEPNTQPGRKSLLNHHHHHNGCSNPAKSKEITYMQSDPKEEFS

T3: zebrafish Tac3rb (tac3 receptor b, NKB receptor) (zebrafish)
T3 chain: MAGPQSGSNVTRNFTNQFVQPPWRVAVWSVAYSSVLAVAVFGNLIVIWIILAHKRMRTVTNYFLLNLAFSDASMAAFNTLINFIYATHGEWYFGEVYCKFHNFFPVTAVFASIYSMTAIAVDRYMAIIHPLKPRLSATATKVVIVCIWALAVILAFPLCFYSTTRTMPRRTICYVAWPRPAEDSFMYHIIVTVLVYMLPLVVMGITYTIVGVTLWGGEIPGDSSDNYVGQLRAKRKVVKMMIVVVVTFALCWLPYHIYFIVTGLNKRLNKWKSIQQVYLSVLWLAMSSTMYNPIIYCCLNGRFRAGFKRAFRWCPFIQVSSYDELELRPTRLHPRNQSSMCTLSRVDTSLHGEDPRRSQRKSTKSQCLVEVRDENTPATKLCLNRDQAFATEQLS

B1: Zebrafish Tac3f peptide, neurokinin F (YNDIDYDSFVGLM-NH2) (peptide)
peptide: YNDIDYDSFVGLM-NH2

Key:
[1] = tested on: zfTac3rb; experiment: Receptor transactivation assay, CRE-Luc reporter (PKA activation), COS-7 cells expressing zfTac3rb; assay type: cell-based, zebrafish; details: Table 6 (native peptides and analogues), PKA activation, mean ± SEM, read-out: EC50 using CRE-Luc, zfTac3rb
Experimental: (§1) In order to study the signaling pathways of the novel zebrafish NKBs, the entire coding regions of zftac3ra (denoted by SEQ ID NO:6) or zftac3rb (denoted by SEQ ID NO:7), or the cDNA clone for human NK3R (obtained from the Missouri S&T cDNA Resource Center, were inserted into pcDNA3.1 (Invitrogen). The luciferase assay was conducted according to Biran et al., 2008 [4] COS-7 cells were grown in DMEM supplemented with 10% FBS, 1% glutamine, 100 U/ml penicillin, and […] streptomycin (Biological Industries) under 5% CO2 until confluent. Cotransfection of either pc-zftac3ra, pc-zftac3rb or pc-Htac3r (at 3 μg/plate), a reporter plasmid (at 2 μg/plate), and pCMV-β-galactosidase (at 1 μg/plate) was carried out with FuGENE 6.0 reagent (Roche). The cells were serum starved for 36 h, stimulated with vehicle or various concentrations of either human (Sigma) or zebrafish NKBs for 6 h, and then harvested and analyzed. Lysates prepared from the harvested cells were assayed for both luciferase activity and β-galactosidase activity, which was used as an internal standard to normalize the luciferase activity directed by the test plasmid. Transfection experiments were performed in triplicate with three independently isolated sets. Protein structure prediction of zebrafish NKBa, NKBb or NKF were performed on I-Tasser servers.
(§2) The response, binding selectivity and signal transduction pathways of the novel tachykinin receptors to their agonists were evaluated by functional expression analysis, using COS-7 cells.
(§3) The NKB analogues (i.e. the NKBa-analog, NKBb-analog and NKF-analog, as denoted by SEQ ID NO. 44-46) were first analyzed in comparison to their native forms in a transactivation assay, using reporter genes for specific signal transduction pathways. To validate the specificity of the serum-responsive element (SRE)-Luc and cAMP-responsive element (CRE)-Luc reporter systems, specific activators for PLC/PKC and AC/PKA signaling pathways were used in control experiments.
(§4) Thus, the ability of the three novel piscine peptides (namely, NKBa, NKBb and NKF, denoted by SEQ ID NO.40, 41 and 42), as well as the ability of the three analogous agonistic peptides, namely, NKBa-analog, NKBb-analog and NKF-analog, to differentially activate the different tac3 receptors, using SRE as a reporter gene that follows PKC activation and CRE as a reporter gene for the PKA pathway, was tested. Human NK3R (human NKB receptor) and human NKB served as controls.

[2] = tested on: zfTac3ra; experiment: Receptor transactivation assay, CRE-Luc reporter (PKA activation), COS-7 cells expressing zfTac3ra; assay type: cell-based, zebrafish; details: Table 6 (native peptides and analogues), PKA activation, mean ± SEM, read-out: EC50 using CRE-Luc, zfTac3ra
Experimental: as §1, §2, §3, §4

[3] = tested on: zfTac3rb; experiment: Receptor transactivation assay, SRE-Luc reporter (PKC activation), COS-7 cells expressing zfTac3rb; assay type: cell-based, zebrafish; details: Table 7 (native peptides and analogues); PKC activation; mean ± SEM; read-out: EC50 using SRE, zfTac3rb
Experimental: as §1, §2, §3, §4

[4] = tested on: zfTac3ra; experiment: Receptor transactivation assay, SRE-Luc reporter (PKC activation), COS-7 cells expressing zfTac3ra; assay type: cell-based, zebrafish; details: Table 7 (native peptides and analogues); PKC activation; mean ± SEM; read-out: EC50 using SRE, zfTac3ra
Experimental: as §1, §2, §3, §4

[5] = tested on: Mature female carp; experiment: Gonadotropin release from mature carp in vivo (LH by ELISA); details: mature female carp just before spawning, injected 20 μg/kg body weight; listed as NKBb analogue
Experimental: Mature female carp, just before spawning, were injected with NKBa, NKBb and NKF analogues, denoted by SEQ ID NO.44, SEQ ID NO.45 and SEQ ID NO.46, respectively (20 μg/kg body weight). LH levels was measured by specific ELISA, according to Aizen et al. 2012 [33].

[6] = target: T1, human NK3R (human NKB receptor); experiment: cell-based or functional assay
[7] = target: T2, zebrafish Tac3ra (tac3 receptor a, NKB …); experiment: cell-based or functional assay
[8] = target: T3, zebrafish Tac3rb (tac3 receptor b, NKB …); experiment: cell-based or functional assay
[9] = target: T1, human NK3R (human NKB receptor); experiment: cell-based or functional assay; remark: listed apart in the source
[10] = target: T2, zebrafish Tac3ra (tac3 receptor a, NKB …); experiment: cell-based or functional assay
[11] = target: T3, zebrafish Tac3rb (tac3 receptor b, NKB …); experiment: cell-based or functional assay
[12] = target: T1, human NK3R (human NKB receptor); experiment: cell-based or functional assay; remark: listed apart in the source
[13] = target: T2, zebrafish Tac3ra (tac3 receptor a, NKB …); experiment: cell-based or functional assay
[14] = target: T3, zebrafish Tac3rb (tac3 receptor b, NKB …); experiment: cell-based or functional assay

Row | Molecule | EC50 ([1]; listed as NKBb-analog) [nM] | EC50 [1] [nM] | EC50 ([2]; listed as NKBb-analog) [nM] | EC50 [2] [nM] | EC50 [3] [nM] | EC50 [4] [nM] | LH level [5] | EC50, CRE-Luc to follow PKA activation, transfected COS-7 cells [6] [nM] | EC50, CRE-Luc to follow PKA activation, transfected COS-7 cells [7] [nM] | EC50, CRE-Luc to follow PKA activation, transfected COS-7 cells [8] [nM] | EC50, CRE-Luc reporter (PKA activation), transfected COS-7 cells [9] [nM] | EC50, SRE-Luc reporter (PKC activation), transfected COS-7 cells [9] [nM] | EC50, CRE-Luc reporter (PKA activation), transfected COS-7 cells [10] [nM] | EC50, SRE-Luc reporter (PKC activation), transfected COS-7 cells [10] [nM] | EC50, CRE-Luc reporter (PKA activation), transfected COS-7 cells [11] [nM] | EC50, SRE-Luc reporter (PKC activation), transfected COS-7 cells [11] [nM] | EC50, SRE reporter gene that follows PKC activation, transfected COS-7 cells [12] [nM] | EC50, SRE reporter gene that follows PKC activation, transfected COS-7 cells [13] [nM] | EC50, SRE reporter gene that follows PKC activation, transfected COS-7 cells [14] [nM]
1 | CSCC[C@H](NC(=O)[C@H](CC(C)C)NC(=O)CNC(=O)[C@H](C(C)C)N(C)C(=O)[C@H](Cc1ccccc1)NC(=O)[C@H](CC(=O)O)NC(=O)CCC(=O)O)C(N)=O [zfNKBb-analog, Succ-Asp-Phe-N(Me)Val-Gly-Leu-Met-NH2] (Suc-DF[NMeV]GLM-NH2) | 2.2 | 2.18 ± 1.34 | 1.7 | 1.68 ± 1.21 | 0.23 | 0.06 | significant elevation; also recorded: increased the level of LH significantly | – | – | – | – | – | – | – | – | – | – | – | –
2 | B1 | – | – | – | – | – | – | – | 4.36 | 4.94 | 1.8 | 4.36 | 0.52 | 4.94 | 0.54 | 1.8 | 0.36 | 0.52 | 0.55 | 0.37
